# Laboratory results reported in patent US20210355194A1 (TWIST BIOSCIENCE, published 2021).
# B1: variant 6-6 (Fc fusion)
# VHH: EVQLVESGGGLVQPGGSLRLSCAASGTTLDYYAMGWFRQAPGKERELVAAISWSGGSTAYADSVKGRFTISADNSKNTAYLQMNSLKPEDTAVYYCAREDYYDSSGYSWGQGTLVTVSS
# B2: variant 6-16 (Fc fusion)
# VHH: EVQLVESGGGLVQPGGSLRLSCAASGFTFDDAAMGWFRQAPGKEREFVAHISWSGGSTYYADSVKGRFTISADNSKNTAYLQMNSLKPEDTAVYYCATFGATVTATNDAFDIWGQGTLVTVSS
# B3: variant 6-38 (Fc fusion)
# VHH: EVQLVESGGGLVQPGGSLRLSCAASGNTFSGGFMGWFRQAPGKEREFVAVISSLSSKSYADSVKGRFTISADNSKNTAYLQMNSLKPEDTAVYYCAKVDSGYDYWGQGTLVTVSS
# B4: variant 6-5 (Fc fusion)
# VHH: EVQLVESGGGLVQPGGSLRLSCAASGRTFTMGWFRQAPGKEREFVASTNSAGSTNYADSVNGRFTISADNSKNTAYLQMNSLKPEDTAVYYCTTVDQYFDYWGQGTLVTVSS
# B5: variant 6-1 (Fc fusion)
# VHH: EVQLVESGGGLVQPGGSLRLSCAASGRTFGNYNMGWFRQAPGKEREFVATINSLGGTSYADSVKGRFTISADNSKNTAYLQMNSLKPEDTAVYYCARVDYYMDVWGQGTLVTVSS
# B6: variant 6-24 (Fc fusion)
# VHH: EVQLVESGGGLVQPGGSLRLSCAASGFTLDYYAMGWFRQAPGKEREFVAAINWSGDNTHYADSVKGRFTISADNSKNTAYLQMNSLKPEDTAVYYCARAPFYCTTTKCQDNYYYMDVWGQGTLVTVSS
# B7: variant 6-17 (Fc fusion)
# VHH: EVQLVESGGGLVQPGGSLRLSCAASGNTGSTGYMGWFRQAPGKEREMVAGVINDGSTVYADSVKGRFTISADNSKNTAYLQMNSLKPEDTAVYYCARLATSHQDGTGYLFDYWGQGTLVTVSS
# B8: variant 6-10 (Fc fusion)
# VHH: EVQLVESGGGLVQPGGSLRLSCAASGSIASIHAMGWFRQAPGKEREFVAAISRSGGFGSYADSVKGRFTISADNSKNTAYLQMNSLKPEDTAVYYCARDDKYYDSSGYPAYFQHWGQGTLVTVSS
# B9: variant 6-25 (Fc fusion)
# VHH: EVQLVESGGGLVQPGGSLRLSCAASGLTFGTYTMGWFRQAPGKEREFVAAISRFGSTYYADSVKGRFTISADNSKNTAYLQMNSLKPEDTAVYYCARGGDYDFWSVDYMDVWGQGTLVTVSS
# B10: variant 6-34 (Fc fusion)
# VHH: EVQLVESGGGLVQPGGSLRLSCAASGSAFRSNAMGWFRQAPGKEREFVAHISWSSKSTYYADSVKGRFTISADNSKNTAYLQMNSLKPEDTAVYYCATYCSSTSCFDYWGQGTLVTVSS
# B11: variant 6-23 (Fc fusion)
# VHH: EVQLVESGGGLVQPGGSLRLSCAASGSIFSMNTMGWFRQAPGKEREFVALINRSGGGINYADSVKGRFTISADNSKNTAYLQMNSLKPEDTAVYYCVRLSSGYYDFDYWGQGTLVTVSS
# B12: variant 6-28 (Fc fusion)
# VHH: EVQLVESGGGLVQPGGSLRLSCAASGDTYGSYWMGWFRQAPGKEREFVATITSDDRTNYADSVKGRFTISADNSKNTAYLQMNSLKPEDTAVYYCARVTSSLSGMDVWGQGTLVTVSS
# B13: variant 6-36 (Fc fusion)
# VHH: EVQLVESGGGLVQPGGSLRLSCAASGFDFSVSWMGWFRQAPGKEREFVTAITWSGDSTNYADSVKGRFTISADNSKNTAYLQMNSLKPEDTAVYYCASLLHTGPSGGNYFDYWGQGTLVTVSS
# B14: variant 6-12 (Fc fusion)
# VHH: EVQLVESGGGLVQPGGSLRLSCAASGSTYTTYSMGWFRQAPGKEREFVAAISGSENVTSYADSVKGRFTISADNSKNTAYLQMNSLKPEDTAVYYCARVDDYMDVWGQGTLVTVSS
# B15: variant 6-22 (Fc fusion)
# VHH: EVQLVESGGGLVQPGGSLRLSCAASGRTFSEVVMGWFRQAPGKEREFVATIHSSGSTSYADSVKGRFTISADNSKNTAYLQMNSLKPEDTAVYYCVRVTSDYSMDSWGQGTLVTVSS
# B16: variant 5-65 (Fc fusion)
# VHH: EVQLVESGGGLVQPGGSLRLSCAASGNIDRLYAMGWFRQAPGKEREGVAAIDSDGSTDYADSVKGRFTISADNSKNTAYLQMNSLKPEDTAVYYCAALIDYGLGFPIEWGQGTLVTVSS
# B17: variant 6-32 (Fc fusion)
# VHH: EVQLVESGGGLVQPGGSLRLSCAASGFTLDYYDMGWFRQAPGKEREFVALISWSGGSTYYADSVKGRFTISADNSKNTAYLQMNSLKPEDTAVYYCATDFYGWGTRERDAFDIWGQGTLVTVSS
# B18: variant 6-2 (Fc fusion)
# VHH: EVQLVESGGGLVQPGGSLRLSCAASGFTMSSSWMGWFRQAPGKEREFVTVISGVGTSYADSVKGRFTISADNSKNTAYLQMNSLKPEDTAVYYCARGPDSSGYGFDYWGQGTLVTVSS
# B19: variant 6-31 (Fc fusion)
# VHH: EVQLVESGGGLVQPGGSLRLSCAASGDTFSANRMGWFRQAPGKEREFVASITWSSANTYYADSVKGRFTISADNSKNTAYLQMNSLKPEDTAVYYCATFNWNDEGFDFWGQGTLVTVSS
# B20: variant 6-18 (Fc fusion)
# VHH: EVQLVESGGGLVQPGGSLRLSCAASGLTFRNYAMGWFRQAPGKEREFIAGMMWSGGTTTYADSVKGRFTISADNSKNTAYLQMNSLKPEDTAVYYCAREGYYYDSSGYLNYFDYWGQGTLVTVSS
# B21: variant 6-4 (Fc fusion)
# VHH: EVQLVESGGGLVQPGGSLRLSCAASGFTRDYYTMGWFRQAPGKEREFVAAISRSGSLTSYADSVKGRFTISADNSKNTAYLQMNSLKPEDTAVYYCANLAYYDSSGYYDYWGQGTLVTVSS
# B22: variant 6-39 (Fc fusion)
# VHH: EVQLVESGGGLVQPGGSLRLSCAASGFTFSPSWMGWFRQAPGKEREFVAAISWSGGSTAYADSVKGRFTISADNSKNTAYLQMNSLKPEDTAVYYCHGLGEGDPYGDYEGYFDLWGQGTLVTVSS
# B23: variant 5-67 (Fc fusion)
# VHH: EVQLVESGGGLVQPGGSLRLSCAASGFNVNDYAMGWFRQAPGKEREFVAGITSSVGVTNYADSVKGRFTISADNSKNTAYLQMNSLKPEDTAVYYCAADIFFVNWGRGTLVTVSS
# B24: variant 6-13 (Fc fusion)
# VHH: EVQLVESGGGLVQPGGSLRLSCAASGLTFNDYAMGWFRQAPGKEREFVAHIPRSTYSPYYADSVKGRFTISADNSKNTAYLQMNSLKPEDTAVYYCAFLVGPQGVDHGAFDVWGQGTLVTVSS
# B25: variant 6-35 (Fc fusion)
# VHH: EVQLVESGGGLVQPGGSLRLSCAASGFTLAYYAMGWFRQAPGKEREFVAAISMSGDDTIYADSVKGRFTISADNSKNTAYLQMNSLKPEDTAVYYCARELGYSSTVWPWGQGTLVTVSS
# B26: variant 6-33 (Fc fusion)
# VHH: EVQLVESGGGLVQPGGSLRLSCAASGTFQRINHMGWFRQAPGKEREFVATINTGGQPNYADSVKGRFTISADNSKNTAYLQMNSLKPEDTAVYYCASLIAAQDYYFDYWGQGTLVTVSS
# B27: variant 6-9 (Fc fusion)
# VHH: EVQLVESGGGLVQPGGSLRLSCAASGFTFDYYAMGWFRQAPGKEREFVSAIDSEGRTSYADSVKGRFTISADNSKNTAYLQMNSLKPEDTAVYYCARWGPFDIWGQGTLVTVSS
# B28: variant 6-19 (Fc fusion)
# VHH: EVQLVESGGGLVQPGGSLRLSCAASGSILSIAVMGWFRQAPGKEREFVAAISPSAVTTYYADSVKGRFTISADNSKNTAYLQMNSLKPEDTAVYYCAIGYYDSSGYFDYWGQGTLVTVSS
# B29: variant 6-3 (Fc fusion)
# VHH: EVQLVESGGGLVQPGGSLRLSCAASGFTFSPSWMGWFRQAPGKEREFVATINEYGGRNYADSVKGRFTISADNSKNTAYLQMNSLKPEDTAVYYCARVDRDFDYWGQGTLVTVSS
# notes: VHH-Fc
# B30: variant 6-77 (Fc fusion)
# VHH: EVQLVESGGGLVQPGGSLRLSCAASGFTFDRSWMGWFRQAPGKEREFVAAVTEGGTTSYADSVKGRFTISADNSKNTAYLQMNSLKPEDTAVYYCARADYDFDYWGQGTLVTVSS
# B31: variant 6-30 (Fc fusion)
# VHH: EVQLVESGGGLVQPGGSLRLSCAASGFAFGDSWMGWFRQAPGKEREFVATINWSGVTAYADSVKGRFTISADNSKNTAYLQMNSLKPEDTAVYYCARADGYFDYWGQGTLVTVSS
# B32: variant 6-14 (Fc fusion)
# VHH: EVQLVESGGGLVQPGGSLRLSCAASGITFRFKAMGWFRQAPGKEREFVAAVSWDGRNTYYADSVKGRFTISADNSKNTAYLQMNSLKPEDTAVYYCASDYYYMDVWGQGTLVTVSS
# B33: variant 6-37 (Fc fusion)
# VHH: EVQLVESGGGLVQPGGSLRLSCAASGHTFSTSWMGWFRQAPGKEREFVATINSLGGTNYADSVKGRFTISADNSKNTAYLQMNSLKPEDTAVYYCARVSSGDYGMDVWGQGTLVTVSS
# B34: variant 5-68 (Fc fusion)
# VHH: EVQLVESGGGLVQPGGSLRLSCAASGFTFDHYTMGWFRQAPGKEREFVAAISGSENVTSYADSVKGRFTISADNSKNTAYLQMNSLKPEDTAVYYCAAEPYIPVRTMRHMTFLTWGQGTLVTVSS
# Target: T1, Acro SARS-CoV-2 (COVID-19) S1 protein (SARS-CoV-2, UniProt P0DTC2 16-685)
# T1 construct: also called SARS-CoV-2 S1
# Assay: SPR
row,Binder,Kd [nM]
1,B1,6.4
2,B2,52.1
3,B3,26.6
4,B4,24.9
5,B5,35.8
6,B6,29.9
7,B7,65.2
8,B8,29.7
9,B9,248
10,B10,21.3
11,B11,59.3
12,B12,54.1
13,B13,32.1
14,B14,50.2
15,B15,25.6
16,B16,353
17,B17,27.2

row,Binder,Kd [nM]
1,B18,29.9
2,B19,39.6
3,B20,30.1
4,B21,45.8
5,B22,11.3
6,B23,22.1
7,B24,25.3
8,B25,251
9,B26,76.4
10,B27,18.5
11,B28,71
12,B29,12.4
13,B30,24.6
14,B31,11.8
15,B32,135
16,B33,22.5
17,B34,111
